These results are taken from paper PMC3217859, “Protein phosphatase 2a (PP2A) binds within the oligomerization domain of striatin and regulates the phosphorylation and activation of the mammalian Ste20-Like kinase Mst3” (BMC Biochemistry, 2011).

Holding throughout (test): co-IP; anti-HA immunoprecipitates (12CA5 with protein A-Sepharose, or F7 anti-HA-agarose when probing for Mst3 or Mst4; 1.5 h, 4°C) of lysates (1% Nonidet P-40, 0.135 M NaCl, 10% glycerol, 20 mM Tris pH 8.0) of HEK293 cells transfected with HA-striatins; endogenous partners by immunoblot, partner/HA-striatin ratio by chemilumimager against wild type; 50 mM NaF and 100 nM okadaic acid in the lysis buffer in the …
Common to all, as to conditions: partners not purified

The target in test [1] is T1, HA-tagged Δ(148-166) striatin (human, UniProt O43815 1-780, Δ(148-166)).
T1 construct: source: HEK293, transfected, in lysate; not shown: HA, N-terminal, kept
T1 sequence (looked up): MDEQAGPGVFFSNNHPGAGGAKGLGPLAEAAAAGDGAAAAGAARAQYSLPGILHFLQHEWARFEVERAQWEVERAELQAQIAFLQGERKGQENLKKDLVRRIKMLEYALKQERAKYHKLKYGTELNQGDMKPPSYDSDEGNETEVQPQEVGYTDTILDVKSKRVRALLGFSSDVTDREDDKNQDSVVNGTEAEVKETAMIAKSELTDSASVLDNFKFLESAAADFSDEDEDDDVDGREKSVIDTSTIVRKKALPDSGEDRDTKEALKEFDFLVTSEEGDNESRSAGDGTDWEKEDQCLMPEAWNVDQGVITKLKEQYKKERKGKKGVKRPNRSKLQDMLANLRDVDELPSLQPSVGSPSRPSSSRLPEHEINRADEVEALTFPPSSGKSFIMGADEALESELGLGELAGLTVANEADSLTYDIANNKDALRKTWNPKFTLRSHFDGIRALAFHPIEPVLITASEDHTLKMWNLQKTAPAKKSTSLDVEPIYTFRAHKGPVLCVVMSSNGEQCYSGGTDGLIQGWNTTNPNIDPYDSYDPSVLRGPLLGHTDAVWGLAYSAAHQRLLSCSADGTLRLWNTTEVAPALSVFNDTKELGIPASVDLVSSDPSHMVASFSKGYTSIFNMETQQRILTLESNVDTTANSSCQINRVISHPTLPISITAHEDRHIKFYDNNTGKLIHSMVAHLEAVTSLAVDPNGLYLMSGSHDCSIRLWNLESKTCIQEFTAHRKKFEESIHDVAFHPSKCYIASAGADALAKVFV

The target in test [2] is T2, HA-tagged striatin with deletion of residues 191-269 (human, UniProt O43815 1-780, deletion of residues 191-269).
T2 construct: source: HEK293 or HEK293 stably expressing FLAG-CCM3, transfected, in lysate; not shown: HA, N-terminal, kept
T2 sequence (looked up): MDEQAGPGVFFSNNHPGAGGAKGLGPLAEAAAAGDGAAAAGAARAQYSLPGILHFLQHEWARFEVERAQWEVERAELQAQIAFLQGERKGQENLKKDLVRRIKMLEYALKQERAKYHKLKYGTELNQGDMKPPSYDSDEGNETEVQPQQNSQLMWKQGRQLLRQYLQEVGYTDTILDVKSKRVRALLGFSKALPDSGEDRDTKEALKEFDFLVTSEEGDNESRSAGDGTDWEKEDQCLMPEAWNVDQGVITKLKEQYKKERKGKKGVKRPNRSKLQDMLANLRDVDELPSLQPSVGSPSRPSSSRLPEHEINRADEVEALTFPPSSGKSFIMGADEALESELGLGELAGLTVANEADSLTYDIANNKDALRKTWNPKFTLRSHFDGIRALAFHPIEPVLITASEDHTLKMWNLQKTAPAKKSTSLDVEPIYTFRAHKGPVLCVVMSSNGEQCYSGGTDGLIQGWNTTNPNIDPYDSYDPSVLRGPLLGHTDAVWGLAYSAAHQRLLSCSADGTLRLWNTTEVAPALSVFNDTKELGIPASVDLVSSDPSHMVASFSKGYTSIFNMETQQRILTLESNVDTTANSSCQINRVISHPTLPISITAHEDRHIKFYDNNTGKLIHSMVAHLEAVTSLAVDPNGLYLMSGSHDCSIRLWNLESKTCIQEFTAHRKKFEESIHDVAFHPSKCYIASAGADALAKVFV

In test [3] the target is T3, HA-tagged Δ(227-309) striatin (human, UniProt O43815 1-780, Δ(227-309)).
T3 construct: source: HEK293, transfected, in lysate; not shown: HA, N-terminal, kept
T3 sequence (looked up): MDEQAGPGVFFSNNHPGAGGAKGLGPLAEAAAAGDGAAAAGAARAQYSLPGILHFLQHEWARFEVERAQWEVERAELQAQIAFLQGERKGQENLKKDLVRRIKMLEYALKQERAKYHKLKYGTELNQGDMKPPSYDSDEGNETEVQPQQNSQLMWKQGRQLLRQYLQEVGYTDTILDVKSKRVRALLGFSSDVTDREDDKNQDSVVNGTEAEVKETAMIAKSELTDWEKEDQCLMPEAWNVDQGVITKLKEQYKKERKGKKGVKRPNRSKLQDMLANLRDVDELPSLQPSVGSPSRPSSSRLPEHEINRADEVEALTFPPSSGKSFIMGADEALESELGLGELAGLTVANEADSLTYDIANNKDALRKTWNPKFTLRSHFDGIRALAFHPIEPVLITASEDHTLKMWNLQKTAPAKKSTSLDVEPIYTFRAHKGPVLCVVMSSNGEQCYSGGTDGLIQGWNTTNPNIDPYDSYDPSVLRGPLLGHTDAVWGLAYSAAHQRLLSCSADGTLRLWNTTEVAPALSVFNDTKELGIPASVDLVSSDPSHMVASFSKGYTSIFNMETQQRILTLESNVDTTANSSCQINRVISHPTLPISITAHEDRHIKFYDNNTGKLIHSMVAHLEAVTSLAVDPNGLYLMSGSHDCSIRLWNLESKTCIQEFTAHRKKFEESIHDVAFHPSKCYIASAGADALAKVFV

Test [4] addresses T4, HA-tagged Δ(270-344) striatin (human, UniProt O43815 1-780, Δ(270-344)).
T4 construct: source: HEK293 or HEK293 stably expressing FLAG-CCM3, transfected, in lysate; not shown: HA, N-terminal, kept
T4 sequence (looked up): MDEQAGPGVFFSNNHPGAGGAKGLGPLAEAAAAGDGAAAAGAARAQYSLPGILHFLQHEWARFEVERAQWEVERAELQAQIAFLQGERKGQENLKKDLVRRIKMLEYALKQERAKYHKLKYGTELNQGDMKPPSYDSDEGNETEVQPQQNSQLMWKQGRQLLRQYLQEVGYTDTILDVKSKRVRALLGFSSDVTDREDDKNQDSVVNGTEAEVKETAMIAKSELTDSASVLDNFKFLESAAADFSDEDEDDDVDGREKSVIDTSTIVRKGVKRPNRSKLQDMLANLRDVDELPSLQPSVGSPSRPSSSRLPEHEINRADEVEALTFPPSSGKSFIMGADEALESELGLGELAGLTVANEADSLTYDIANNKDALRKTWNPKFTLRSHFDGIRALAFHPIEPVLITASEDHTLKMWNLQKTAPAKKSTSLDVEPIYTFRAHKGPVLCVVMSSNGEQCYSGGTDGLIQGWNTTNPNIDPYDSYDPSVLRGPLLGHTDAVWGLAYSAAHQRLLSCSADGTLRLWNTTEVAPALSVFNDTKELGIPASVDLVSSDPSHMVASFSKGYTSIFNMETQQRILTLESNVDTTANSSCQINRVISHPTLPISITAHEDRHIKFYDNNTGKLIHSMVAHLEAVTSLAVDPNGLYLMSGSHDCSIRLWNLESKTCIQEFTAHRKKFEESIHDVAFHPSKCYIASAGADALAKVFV

In test [5] the target is T5, HA-tagged R100S/R101E striatin (human, UniProt O43815 1-780, R100S | R101E).
T5 construct: striatin, human, double point mutant in the coiled-coil domain; source: HEK293, transfected, in lysate; not shown: HA, N-terminal, kept
T5 sequence (looked up): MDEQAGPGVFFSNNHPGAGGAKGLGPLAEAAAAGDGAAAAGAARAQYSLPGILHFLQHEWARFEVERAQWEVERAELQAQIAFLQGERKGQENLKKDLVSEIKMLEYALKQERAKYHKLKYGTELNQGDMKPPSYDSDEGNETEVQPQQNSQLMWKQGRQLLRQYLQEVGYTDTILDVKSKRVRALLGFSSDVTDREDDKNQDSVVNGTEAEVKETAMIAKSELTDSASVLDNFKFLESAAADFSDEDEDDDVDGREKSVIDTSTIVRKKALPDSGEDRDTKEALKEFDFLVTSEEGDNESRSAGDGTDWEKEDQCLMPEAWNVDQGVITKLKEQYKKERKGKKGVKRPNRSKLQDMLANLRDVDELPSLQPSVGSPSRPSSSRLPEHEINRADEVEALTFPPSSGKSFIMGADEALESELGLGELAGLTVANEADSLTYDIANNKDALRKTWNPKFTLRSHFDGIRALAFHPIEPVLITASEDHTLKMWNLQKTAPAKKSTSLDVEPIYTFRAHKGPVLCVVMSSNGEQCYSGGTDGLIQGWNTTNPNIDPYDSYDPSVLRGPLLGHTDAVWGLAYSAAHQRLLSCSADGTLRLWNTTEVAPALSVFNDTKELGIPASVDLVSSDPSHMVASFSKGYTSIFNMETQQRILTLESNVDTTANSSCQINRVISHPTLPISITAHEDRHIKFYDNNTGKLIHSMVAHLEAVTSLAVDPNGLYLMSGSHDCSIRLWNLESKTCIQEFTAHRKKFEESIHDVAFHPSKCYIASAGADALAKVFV

B1: Mst4 kinase (enzyme)
chain: not shown
notes: Mst4 kinase, endogenous in HEK293 cells; source: endogenous, HEK293 lysate
Consider B1, for which the “fold binding against wild-type striatin” value in test [1] was about 4 fold. The “percent reduction in binding against wild-type striatin” value in test [2] was determined as 33%; in test [3], 38%; in test [4], 75%.

B2: mammalian Ste20-like kinase Mst3 (enzyme)
chain: not shown
notes: Mst3 kinase, endogenous in HEK293 cells; Runs as a lower and an upper (hyperphosphorylated) band; both are found with striatin; source: endogenous, HEK293 lysate
Turning to B2, the “fold binding against wild-type striatin” value in test [1] was about 3.5 fold. The “percent reduction in binding against wild-type striatin” value in test [2] is about 33%.

B3: S/G2 nuclear autoantigen (SG2NA) (natural protein, human (endogenous in HEK293), UniProt Q13033 1-797, looked up)
chain: MDELAGGGGGGPGMAAPPRQQQGPGGNLGLSPGGNGAAGGGGPPASEGAGPAAGPELSRPQQYTIPGILHYIQHEWARFEMERAHWEVERAELQARIAFLQGERKGQENLKKDLVRRIKMLEYALKQERAKYHKLKYGTELNQGDLKMPTFESEETKDTEAPTAPQNSQLTWKQGRQLLRQYLQEVGYTDTILDVRSQRVRSLLGLSNSEPNGSVETKNLEQILNGGESPKQKGQEIKRSSGDVLETFNFLENADDSDEDEENDMIEGIPEGKDKHRMNKHKIGNEGLAADLTDDPDTEEALKEFDFLVTAEDGEGAGEARSSGDGTEWDKDDLSPTAEVWDVDQGLISKLKEQYKKERKGKKGVKRANRTKLYDMIADLGDDELPHIPSGIINQSRSASTRMTDHEGARAEEAEPITFPSGGGKSFIMGSDDVLLSVLGLGDLADLTVTNDADYSYDLPANKDAFRKTWNPKYTLRSHFDGVRALAFHPVEPVLVTASEDHTLKLWNLQKTVPAKKSASLDVEPIYTFRAHIGPVLSLAISSNGEQCFSGGIDATIQWWNMPSPSVDPYDTYEPNVLAGTLVGHTDAVWGLAYSGIKNQLLSCSADGTVRLWNPQEKLPCICTYNGDKKHGIPTSVDFIGCDPAHMVTSFNTGSAVIYDLETSQSLVILSSQVDSGLQSNNHINRVVSHPTLPVTITAHEDRHIKFFDNKTGKMIHSMVAHLDAVTSLAVDPNGIYLMSGSHDCSIRLWNLDSKTCVQEITAHRKKLDESIYDVAFHSSKAYIASAGADALAKVFV
notes: SG2NA, striatin family member, endogenous in HEK293 cells; source: endogenous, HEK293 lysate
As for B3, the “percent of the wild-type level bound” value in test [5] is 81 % of wild-type level.
